Reference: the nanobody polyreactivity screen of Harvey et al. (2022)

Experiment: yeast display, Sf9 membrane polyspecificity reagent, FACS + sequencing; frameworks hold sequencing errors
Outline: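 Nanobodies came from a synthetic yeast display library in Saccharomyces cerevisiae BJ5465, induced with galactose for 36–48 hours and stained for 1 hour at 4 °C with 10% biotinylated, detergent-solubilized Sf9 membrane reagent. Cells were enriched on streptavidin microbeads and then FACS-sorted, with low and high (top ~1%) gates set on anti-HA fluorescence for expression and streptavidin fluorescence for reagent binding. Each polyreactivity label reflects the gate a clone came from. Genes were amplified by colony PCR, sequenced by MiSeq 2 × 250 and filtered by CDR length.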

| Sequence | polyreactivity (PSR sort gate) |
| --- | --- |
| QVQLVESGGGLVQAGGSLRLSCAASGRTFGFYAMGWYRQAPGKERELVATITYRGSGGSTYYADSVKGRFTISRDNAKNTVYLQMNSLKPEDTAVYYCAADKRYSRYFSFDYWGQGTQVTVSS | high polyreactivity |
| QVQLVESGGGLVQAGGSLRLSCAASGSTLRHNVMGWYRQAPGKERELVAAITFSGGSTTYADSVKGRFTISRDNAKNTVYLQMNSLKPEDTAVYYCNAVYAGAGSFHPGYGYWGQGTQVTVSS | low polyreactivity |
| QVQHVESGGRLVQAGGSLRLSCAPSGFIFSKYAMGWYRQAPGKERELVAAITRSGGRTYYADSVKGRFTISRDNAKNTVYLQMNSLKPEDTAVYYCAASWLYFGRDYWGQGTQVTVSS | high polyreactivity |
| QVQLVESGGGLVQAGGSLRLSCAASGYIFSYNAMGWYRQAPGKERELVAAMTASGGGTYYADSVKGRFTISRDNAKNTVYLQMNSLKPEDTAVYYCAADFNDHYYWYGQDYDYWGQGTQVTVSS | low polyreactivity |
| QVQLVESGGGLVQAGGSLRLSCAASGGPFFYYAMGWYRAAPGKAREWVAAITWSATDTYYADSVKGRFTISRDNAKNTVYIQMNSLKPEDTAVYYCNAAPIGSEVDYGGQGTQVTVSS | low polyreactivity |
| QVQLVESGGGLVQAGGSLRLSCAASGSTFYRNAMGWYRQAPGKERELVATISTGGVSTYYADSVKGRFTISRDNAKNTVYLQMNSLKPEDTAVYYCAKRTVYLSNLDYWGQGTQVTLSS | low polyreactivity |
| QVQLVESGGGLVQAGGSLRLSCAASGFTFTAYAMGLYRQAPGKERQLVAAINWSGSRTYYADSVKGRFTISRDNAKNTVYLQMNSLKPEDSAVYYCNTPTSKSSYRHYDYWGQGTQVTVSS | high polyreactivity |
| QVQLVESGGGLVQAGGSLRLSCPASGRTFDYNAMGWYRQAPGKERELVAAITSSGGSTYYADSVKGRFTISRDNAKNTVYLQMNSLKPEDSAVYYCATDGQSPYYIYYWGQGTQVTVSS | low polyreactivity |
| QVQLVESGGGLVQAGGSLRLSCAASGRIGKYAMGWYRQAPGKERELVATISSTGTTNYADSVKGRFTISRDNAKNTVYLQMNSLKPEDTAVYYCAADKPSYRTLSWGGYWGQGTQVTVSS | high polyreactivity |
| QVQLVESGGGLVQAGGSLRLSCAASGFTLLKYDMGWYRQAPGKERELVAAITRRGGRTSYADSVKGRFTISRDNAKNTVYLQMNSLKPEDTAVYYCNADGDTGRFDYWGQGTQVSVSS | high polyreactivity |
| QDQLVESGGGLVQAGGSLRLSCAASGRNFGYYTRGWYRQAPGKERELVATINWSGGNTYYADSVKGRFTISRDNAKNTVYLQMTCLKPEDTAVYYCATRSRAPQQVYYQNYDYWGQGTQVTVSS | high polyreactivity |
| QVQLVESGGGLVQAGGSLRLSCAASGLIFKRNAMGWYRQAPGKERELVATISGSGGSTYYADSVKGRFTISRDNAKNTFYLQMNSLKPEDTAVYYCAAEASSVSYPYEYEYWGQGTQVTVSS | high polyreactivity |
| QVQLVESGGGLVQAGGSLRLSCAASGLIFPSYTMGWYRQAPGKERELVAAITFSGDSTNYADSVKGRFTISRDNAKNTVYLQMNSLKPEDTAVYYCAASQVSDTTRFGYWGQGTQVTVSS | low polyreactivity |
| QVQLVESGGGLVQAGGSLRLSCAASGSTFAANAMGWYRQAPGKERELVAVIRRGGSTTYADSVKGRFTISRDNAKNTVYLQMNSLKPEDTAVYYCHARVTLGRPLFTYLVRYEYWGQGTQVTVSS | high polyreactivity |
| QVQLVESGGGLVQAGGSLRLSCAASGSTFAYYAMGWYRQAPGKERELVAVISVRVGSTYYADSVKGRFTISRDNAKNTVYLQMNSLNPEDTAVYYCATDFFYHSLSSRQDGDYWGQGTQVTVSS | high polyreactivity |
| QVQLVESGGGLVQAGGSLRLSCAASGRTFVFNAMGWYRQAPGKERELVAAISRSGGSTYYADSVKGRFTISRDNAKNTVYLQMNSLKTEDTAVYYCAADTPYLRRRLGMDYWGQGTQVTVSS | high polyreactivity |
| QVQLVESGGGLVQAGGSLRLSCAASGITFAPYAMGRYRQAPGKERELVAAIRGSTTSTYYADSVKGRFTISRDNAKNTVYLQINSLKPEDTAVYYCAAAGWKGLGRFYSWGQGTQVTLSS | high polyreactivity |
| HVQLVESGGGLVQAGGSLRLSCAASGFTFYVYAMGWYRQAPGTERELVAAISRGGSTYYADSVKGRFTISRDNAKNTVYLQMNSLKPEDTAVYYCNRVPSVSSSKVRYSNGFDYWGQGTQVTVSS | low polyreactivity |
| QVQLVESGGGLVQAGGSLRLSCAASGSIFYGNTMGWYRQAPGKERELVAAIRSVGRTYYADSVKGRFTISRDNAKNTVYLQMNSLKPEDTAVYYCAADPRSYFTSEYWGQGTQVTVSS | high polyreactivity |
| QVQLQESGSGLVQAGGSLRLSCAASGAIFPAYLMGWYRQAPGKERELVAGISYGSITYCADSVKGRFNISRDNAKNTVYLQMNSLKPEDTAVYYCAVWRPGVDEYYYWGQGTQVTVSS | low polyreactivity |
| QVQLVESGGGLVQAGGSLRLSCAASGNILGTYAMGWYRQAPGKERELVAAISSSVGSTYYADSVKGRFSISRDNAKKTVYLQMNSLKPEDTAVYYCAARNYQFYEKWGYLYDYWGQGTQVTVSS | low polyreactivity |

| Sequence | polyreactivity (PSR sort gate) |
| --- | --- |
| QVQLVESGGGLVQAGGSLRLSCAPSGRIIRPYAKGWYIQAPGKERELVAAISVSGVITYYADSVKGRFTISRDNAKNTVYLQMNSLKPEDTAVYYCATDYTRRRWGRLYDYWGQGTQVTVSS | low polyreactivity |
| QVQLVESGGCLVQAGGSLRLSSAASGFIFSRYAMGWYRQATGKERELVASISWGGGSTSYADSVKGRFTISRDNAKYTVYLQMNSLKPEDTAVYYCNARVRSHRFNYWGQGTQVTVSS | high polyreactivity |
| QVQLVESGGGLVQAGGSLRLSCAASGLIFPYYAMGWYRQAPGKERELVAAISYRGSRTYYADSVKGRFTISRDNAKNTVYLQMNSLKPEDTAVYYCIAGVSGRDNYWGQGTQVNVSS | high polyreactivity |
| QGQLVESGGGLVQAGGSLRLSCAASGFTFVGNAMGWYRQAPGKERELVATITSGGNTKYADSVKGRFTISRDNAKYTVYLQKNSLKPEDTAVYYCAAAKYNYRRFNYWGQGTQVTVSS | low polyreactivity |
| QVQLVESGGGLVQAGGSLRLSCAASGFTFIDYAMGWYRQAPGKERELVAAISKRGGSTYYADSVKGRFTISRDNAKNSVYLQMNSLKPEDTAVYYCNAKAYHQGYLTRDDYWGQGTQVTVSS | high polyreactivity |
| QVQLVESVGGLVQAGGSLRLSCAASGRTFRWNAMGWYRQAPGKERELVAAISYSGGSTYYADSVKGRFTISRDNAKNTVYLQMNSLKPEDTAVYYCAKAYSWYPIFRGLDSWGQGTQVTVSS | high polyreactivity |
| QLQLVESGGGLVQAGGSLRLSCAASGRIFKFNAMGWYRQATGKERELVARITWRGGSPYYADSVKGRFTISRDNAKNTVYLQLNSLKPEDTAVYDCATYTPWTRFYSGTEVGYWGQGTQVTVSS | high polyreactivity |
| HVQLVESGGGLVQAGGSLRLSCAASGSIFYGNTMGWYRQAPGKEREFVAAINKSDDSTYYADSVKGRFTISRDNAKNTVYLQMNSLKPEDTAVYYCWGPGTQVTVSS | low polyreactivity |
| QVQLVESGGGLVQAGGSLRLSCAASGSTFWYYAMGWYRQAPGKERELVASITYSGGSTYYADSVKGRFTISRDNAKNTVYLQMNSLKPEDSAVYYCAAEGYYSNYHYWGQGTQVTVSS | low polyreactivity |
| QVQLVESGGGLVQAGGSLRLSCAASGNIITTYAMGWYRQAPGKERELVAAISRSGGRTNYADSVKGRFTISRDNAKNTVYLQMNSLKPEDTAVYYCAADGVPGRAVDYEYWGQGTQVTVSS | high polyreactivity |
| QVQLVESGGGLVQAGGSLRISCAASGFTFSYYAMGWYRQAPGKERDLVAAISGRTGRTYYADSVKGRFTISRDNAKNTVYLQMNSLKPEDTAVYYCAAGYTFSRYDDDYWGQGTQVTVSW | low polyreactivity |
| QVQLVESGGGLVQVGGSLRLSCAASGRTFGRYAMGWYRQAPGKERELVAAINSVARTNYADSVKGRFTISRDNAKNTVYLHMNSLKPEDTAVYYCAARYYYSGVTHAKRIAYYYWGQGTQVTVSS | high polyreactivity |
| QVQLQESGGGLVQAGGSLRLSCASSGSISGPHVMGWYRQAPGKEREFVAAINVGANTYYADNVKGRFTISRDNAKNTVYLQMNSLKPEDTAVYYCAAVYYGDIGHEYWGQGTQVTVSC | low polyreactivity |
| LVQLQECGGGLVQAGGSLRLSCAASGNIFDADIMGWYRQAPCKERELVASVTDGGSTNYADSVKGRFTISRDNAKNTVYLQMNSLKPEDTAVYYCEAIVYPDILTYFDYDYDYFYWGQGTQVTVGS | low polyreactivity |
| QVQLVESGGGLVQAGGSLRLSCAASGLIFYGYVMGWYRHAPGKERELVAGISRNYGSTYYADSVKGRFTISRDNAKHTVYLQMNSLKPEDTAVYYCAALTFEAWAGEDYWGQGTQVTVTS | low polyreactivity |
| QVQLVESGGGLVQAGGSLRLSCAASGIILYRNVLGWYRQAPGKERELVASINRGSDSTYYADSVKGRFTISRDNEKNTVYLHMNSLKPEDTAVYYCAAVYVYGVEMDYWGQGTQVTVSS | low polyreactivity |
| QVQLVESGGGLVQAGRSLRLSCAASGFTFLVYAMGWYRQAPGTERELVAAMSNGGSTNYADSVKGRFTITRDTAKNTVYLHMNSLKPEDTAVYYCAADDPRDHWYTAMDYWGQGTQVTVSS | low polyreactivity |
| QVQLVESGGGLDQAGGSLRLSSAASGFIFDGNAMGWYRQAPGKERELVASITKSSGRTYYADSVKGRFTISRDNAKNTVYLQMNSLKPEDTAVYYCNKARRSVQPYGRQYDYWGQGTQVTVSS | high polyreactivity |
| QVHLVESGGGLVQAGGSLRLSCAASASIFGSNAMGWYRQAPGKDRELVAAITWSDGSTYYADSVKGRFTISRDNAKNTVYLQMNSLKPDDTAVYYCSSDYGYSWYDYWGQGTQVTVSS | low polyreactivity |
| QVQLVESGGGLVQAGGSLRISCAASGSIFGLYAMGWYRQAPGKERELVAAINQSGGSTSYADSVKGRFTISRDNAKNTVYLQMNSLKPEDTAVYYCNRVRLNSEGFDYWGQGTQVTVSS | low polyreactivity |
